In publication PMC7416112 (Structure(London, England:1993), 2020) one finds Kd, koff and kon data, which are given here for two molecules.

Test in all cases: BLI
(In general: BLI is a label-free optical method that tracks binding on a fibre tip over time.)

The target of experiment [1] is BG505 SOSIP.v4.1-2XStrep N332 N392Q (HIV-1 (BG505)).
The target in experiment [2] is BG505 SOSIP.v4.1-2XStrep N332 N386Q (HIV-1 (BG505)).
Experiment [3] addresses BG505 SOSIP.v4.1-2XStrep N332 N295Q (HIV-1 (BG505)).
In experiment [4] the target is BG505 SOSIP.v4.1-2XStrep N332 N363Q (HIV-1 (BG505)).
Experiment [5] concerns the target BG505 SOSIP.v4.1-2XStrep (N332) (HIV-1 (BG505)).
Experiment [6] concerns the target BG505 SOSIP.v4.1-2XStrep N332 N339Q (HIV-1 (BG505)).
The target in experiment [7] is BG505 SOSIP.v4.1-2XStrep T332 (HIV-1 subtype A, BG505, UniProt Q2N0S6, stabilised). Particulars: both partners purified.

2G12 Fab2: the Kd (usually the free concentration of one partner at which half of the binding sites on the other are occupied at equilibrium, for simple one-to-one binding) in experiment [1] is 16.8 nM; in experiment [2], 3.15 nM; in experiment [3], 11.4 nM; in experiment [4], 3.99 nM; in experiment [5] it was 4.25 nM; in experiment [6], 7.35 nM.

B1: 2G12 Fab2 (Fab, V domains shown)
VH: EVQLVESGGGLVKAGGSLILSCGVSNFRISAHTMNWVRRVPGGGLEWVASISTSSTYRDYADAVKGRFTVSRDDLEDFVYLQMHKMRVEDTAIYYCARKGSDRLSDNDPFDAWGPGTVVTVSP
VL: DVVMTQSPSTLSASVGDTITITCRASQSIETWLAWYQQKPGKAPKLLIYKASTLKTGVPSRFSGSGSGTEFTLTISGLQFDDFATYHCQHYAGYSATFGQGTRVEIK
notes: also called 2G12 bnAb; copies: 2 + 2
For the molecule B1, in experiment [7], the equilibrium dissociation constant (Kd) worked out at 22.9 nM, the off-rate (koff) (usually the rate constant with which the complex falls apart) was 0.00558 s⁻¹ and the association rate constant (kon) (usually the second-order rate constant of association) was found to be 244000 M⁻¹ s⁻¹.
